According to patent US20230265151A1, “GIP/GLP1 CO-AGONIST COMPOUNDS” (priority 2020, published 2023):

T1: human GIP receptor (human, UniProt P48546 22-466)
T1 sequence (looked up): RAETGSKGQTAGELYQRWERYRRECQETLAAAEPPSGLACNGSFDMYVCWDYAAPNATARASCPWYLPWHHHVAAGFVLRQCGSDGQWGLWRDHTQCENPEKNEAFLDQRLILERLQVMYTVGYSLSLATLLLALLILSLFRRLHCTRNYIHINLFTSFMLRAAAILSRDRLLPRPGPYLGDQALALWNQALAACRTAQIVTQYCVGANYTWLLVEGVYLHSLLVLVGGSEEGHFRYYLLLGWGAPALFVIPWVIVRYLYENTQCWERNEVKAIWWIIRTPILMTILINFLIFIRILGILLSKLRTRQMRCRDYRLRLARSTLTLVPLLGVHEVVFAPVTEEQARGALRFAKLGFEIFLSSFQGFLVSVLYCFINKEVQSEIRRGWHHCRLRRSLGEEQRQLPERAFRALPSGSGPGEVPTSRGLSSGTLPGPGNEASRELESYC

T2: human GIP receptor (human) (UniProt P48546)
T2 sequence (looked up): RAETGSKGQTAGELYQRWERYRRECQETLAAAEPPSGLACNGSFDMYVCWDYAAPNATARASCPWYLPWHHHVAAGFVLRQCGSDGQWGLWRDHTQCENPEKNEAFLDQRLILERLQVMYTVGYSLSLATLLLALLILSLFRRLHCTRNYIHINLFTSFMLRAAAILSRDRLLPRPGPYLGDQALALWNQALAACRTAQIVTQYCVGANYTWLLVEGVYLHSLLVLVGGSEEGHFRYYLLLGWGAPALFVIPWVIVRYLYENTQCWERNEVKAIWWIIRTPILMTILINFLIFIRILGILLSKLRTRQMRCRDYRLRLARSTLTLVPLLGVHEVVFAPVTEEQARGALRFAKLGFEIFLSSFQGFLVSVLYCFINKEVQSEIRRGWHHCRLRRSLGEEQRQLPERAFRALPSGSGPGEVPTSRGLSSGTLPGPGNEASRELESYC

T3: human GIP receptor (human, UniProt P48546 22-466)
T3 sequence (looked up): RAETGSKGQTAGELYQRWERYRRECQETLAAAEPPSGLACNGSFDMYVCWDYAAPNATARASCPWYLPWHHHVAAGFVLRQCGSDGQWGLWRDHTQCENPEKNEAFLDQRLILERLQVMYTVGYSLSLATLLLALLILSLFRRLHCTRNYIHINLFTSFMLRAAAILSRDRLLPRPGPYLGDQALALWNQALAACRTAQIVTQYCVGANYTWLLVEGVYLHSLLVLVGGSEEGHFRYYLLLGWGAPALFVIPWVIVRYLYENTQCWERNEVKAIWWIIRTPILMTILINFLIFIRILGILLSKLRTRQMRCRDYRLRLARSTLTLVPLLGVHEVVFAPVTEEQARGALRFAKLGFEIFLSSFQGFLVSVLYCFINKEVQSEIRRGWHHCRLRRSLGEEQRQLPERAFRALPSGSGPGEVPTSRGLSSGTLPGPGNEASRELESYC


Columns and labels:
Experiment in all cases: cell-based or functional assay
[1] = target: T1, human GIP receptor
[2] = target: human glucagon receptor (human, UniProt P47871 26-477)
[3] = target: hGLP-1R (Homo sapiens, UniProt P43220)
[4] = target: T2, human GIP receptor (human)
[5] = target: human glucagon receptor (human) (UniProt P47871)
[6] = target: T3, human GIP receptor; remark: listed apart in the source
[7] = target: human GLP-1 receptor (human, UniProt P43220 24-463)
[8] = target: human glucagon receptor (human, UniProt P47871 26-477); remark: listed apart in the source
Target sequence in this assay (P47871 26-477): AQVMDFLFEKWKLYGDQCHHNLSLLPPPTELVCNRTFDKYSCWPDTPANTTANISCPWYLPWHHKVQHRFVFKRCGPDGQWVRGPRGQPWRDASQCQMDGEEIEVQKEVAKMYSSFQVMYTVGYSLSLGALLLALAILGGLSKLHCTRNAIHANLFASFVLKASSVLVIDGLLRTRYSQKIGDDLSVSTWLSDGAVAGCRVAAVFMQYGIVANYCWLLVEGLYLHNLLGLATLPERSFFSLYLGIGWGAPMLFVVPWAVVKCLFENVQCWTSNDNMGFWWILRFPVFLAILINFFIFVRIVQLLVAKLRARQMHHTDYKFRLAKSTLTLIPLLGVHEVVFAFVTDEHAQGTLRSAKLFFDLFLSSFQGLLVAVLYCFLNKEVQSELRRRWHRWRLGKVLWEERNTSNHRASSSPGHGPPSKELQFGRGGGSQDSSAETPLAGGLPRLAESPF

| Binder | cAMP EC50 (1.0% HSA) [1] [nM] | cAMP EC50 (1.0% HSA) [2] [nM] | cAMP EC50 [3] [nM] | cAMP Emax [3] [%] | cAMP EC50 [4] [nM] | cAMP Emax [4] [%] | cAMP EC50 [5] [nM] | cAMP EC50 (1.0% HSA) [6] [nM] | cAMP Emax (1.0% HSA) [6] [%] | cAMP EC50 (1.0% HSA) [7] [nM] | cAMP Emax (1.0% HSA) [7] [%] | cAMP EC50 (1.0% HSA) [8] [nM] |
| --- | --- | --- | --- | --- | --- | --- | --- | --- | --- | --- | --- | --- |
| YXEGTXTSDXSIXLDXKAQXEFIXXLIEGGKSSGAPPPS (Aib2, αMeF(2F)6, 1Nal10, αMeL13, Orn16, Aib20, D-Glu24, αMeY25; acylated K17, K31 (groups as in name); C-terminal amide) | 6.75 | > 9950 |  |  |  |  |  |  |  |  |  |  |
| YXEGTXTSDXSIXLDXIAQXKFIXXLIEGGKSSGAPPPS (Aib2, αMeF(2F)6, 4Pal10, αMeL13, Orn16, Aib20, D-Glu24, αMeY25; acylated K21, K31 (groups as in name); C-terminal amide) | 2.19 | > 9950 |  |  |  |  |  |  |  |  |  |  |
| YXEGTXTSDXSIXLDXKAQXEXIXXLIEGGKSSGAPPPS (Aib2, αMeF6, 4Pal10, αMeL13, Orn16, Aib20, αMeF22, D-Glu24, αMeY25; acylated K17, K31 (groups as in name); C-terminal amide) [Y-Aib-EGT-αMeF-TSD-4Pal-SI-αMeL-LD-Orn-K((2-[2-(2-Amino-ethoxy)-ethoxy]-acetyl)2-(γ-Glu)-CO-(CH2)12-CO2H)AQ-Aib-E-αMeF-I-(D-Glu)-αMeY-LIEGGK((2-[2-(2-Amino-etho …, listing 1 of 2 here] | 0.777 | > 9950 |  |  |  |  |  |  |  |  |  |  |
| YXEGTXTSDKXIXLDGKAQXEFIXXLIEGGPSSGAPPPS (Y-Aib-EGT-αMeF(2F)-TSDK((2-[2-(2-Amino-ethoxy)-ethoxy]-acetyl)2-(γ-Glu)-CO-(CH2)10-CH3)-Aib-I-αMeL-LDGK((2-[2-(2-Amino-ethoxy)-ethoxy]-acetyl)2-(γ-Glu)-CO-(CH2)10-CH3)AQ-Aib-EFI-(D-Glu)-αMeY-LIEGGPSSGAPPPS-NH2) [Example 445] |  |  | 0.0781 | 103 | 0.00728 | 102 | > 9950 | 1.17 | 91.4 | 13.1 | 100 | > 9950 |
| YXEGTXTSDXXIXLDXQAQXKFIXXLIKGGPSSGAPPPS (Y-Aib-EGT-αMeF(2F)-TSD-4Pal-Aib-I-αMeL-LD-Orn-QAQ-Aib-K((2-[2-(2-Amino-ethoxy)-ethoxy]-acetyl)2-(γ-Glu)-CO-(CH2)12-CO2H)FI-(D-Glu)-αMeY-LIK((2-[2-(2-Amino-ethoxy)-ethoxy]-acetyl)2-(γ-Glu)-CO-(CH2)12-CO2H)GGPSSGAPPPS-NH2) [Example 488] |  |  | 0.207 | 113 | 0.0115 | 104 | > 10100 | 0.718 | 85.5 | 13 |  | > 9950 |
| YXEGTXTSDXSIXLDXKAQXEXIXXLIEGGKSSGAPPPS (Aib2, αMeF6, 4Pal10, αMeL13, Orn16, Aib20, αMeF22, D-Glu24, αMeY25; acylated K17, K31 (groups as in name); C-terminal amide) [Y-Aib-EGT-αMeF-TSD-4Pal-SI-αMeL-LD-Orn-K((2-[2-(2-Amino-ethoxy)-ethoxy]-acetyl)2-(γ-Glu)-CO-(CH2)10-CH3)AQ-Aib-E-αMeF-I-(D-Glu)-αMeY-LIEGGK((2-[2-(2-Amino-ethox …, listing 2 of 2 here] | 1.24 | > 9950 |  |  |  |  |  |  |  |  |  |  |
| YXEGTXTSDXXIXLDXKAQXKXIXXLIEGGPSSGAPPPS (Y-Aib-EGT-αMeF(2F)-TSD-4Pal-Aib-I-αMeL-LD-Orn-K((2-[2-(2-Amino-ethoxy)-ethoxy]-acetyl)3-(γ-Glu)-CO-(CH2)10-CH3)AQ-Aib-K((2-[2-(2-Amino-ethoxy)-ethoxy]-acetyl)3-(γ-Glu)-CO-(CH2)10-CH3)-αMeF-I-(D-Glu)-αMeY-LIEGGPSSGAPPPS-NH2) [Example 437] |  |  | 0.249 | 89.2 | 0.0146 | 94.8 | > 9950 | 0.461 | 96.5 | 9.65 | 91.2 | > 9950 |
| YXEGTXTSDKXIXLDXKAQXEXIXXLIEGGPSSGAPPPS (Y-Aib-EGT-αMeF(2F)-TSDK((2-[2-(2-Amino-ethoxy)-ethoxy]-acetyl)3-(γ-Glu)-CO-(CH2)10-CH3)-Aib-I-αMeL-LD-Orn-K((2-[2-(2-Amino-ethoxy)-ethoxy]-acetyl)3-(γ-Glu)-CO-(CH2)10-CH3)AQ-Aib-E-αMeF-I-(D-Glu)-αMeY-LIEGGPSSGAPPPS-NH2) [Example 436] |  |  | 0.102 | 98.9 | 0.00714 | 102 | > 9950 | 0.241 | 96 | 4.98 |  | > 9950 |
| YXEGTXTSDXXIXLDXKAQXEXIXXLIEGGPSSGAPPPSK (not fully specified; Y-Aib-EGT-αMeF(2F)-TSD-4Pal-Aib-I-αMeL-LD-Orn-K((2-[2-(2-Amino-ethoxy)-ethoxy]-acetyl)2-(γ Glu)-CO-(CH2)10C3)AQ-Aib-E-αMeF-I-(D-Glu)-αMeY-LIEGGPSSGAPPPSK((2-[2-(2-Amino-ethoxy)-ethoxy]-acetyl)2-(γ-Glu)-CO-(CH2)10-CH3)-NH2) [Example 431] |  |  | 0.134 | 99.2 | 0.0097 | 104 | > 9950 | 0.645 | 98 | 17.5 | 91.6 | > 9950 |
| YXEGTXTSDXXIXLDXKAQXXFIXXLIEGGPSSGAPPPSK (Y-Aib-EGT-αMeF(2F)-TSD-4Pal-Aib-I-αMeL-LD-Orn-K((2-[2-(2-Amino-ethoxy)-ethoxy]-acetyl)3-(γ Glu)-CO-(CH2)10CH3)AQ-Aib-Orn-FI-(D-Glu)-αMeY-LIEGGPSSGAPPPSK((2-[2-(2-Amino-ethoxy)-ethoxy]-acetyl)3-(γ-Glu)-CO-(CH2)10-CH3)-NH2) [Example 435] |  |  | 0.0527 | 111 | 0.00517 | 104 | > 9950 | 0.0873 | 98.7 | 1.63 | 97.8 | > 9950 |
| YXEGTXTSDXXIXLDXQAQXKFIXXLIEGGPSSGAPPPSK (Y-Aib-EGT-αMeF(2F)-TSD-4Pal-Aib-I-αMeL-LD-Orn-QAQ-Aib-K((2-[2-(2-Amino-ethoxy)-ethoxy]-acetyl)2-(γ-Glu)-CO-(CH2)12-CO2H)FI-(D-Glu)-αMeY-LIEGGPSSGAPPPSK((2-[2-(2-Amino-ethoxy)-ethoxy]-acetyl)2-(γ-Glu)-CO-(CH2)12-CO2H)-NH2) [Example 489] |  |  | 0.257 | 112 | 0.0131 | 103 | > 10100 | 0.578 | 79.4 | 13.5 | 98.7 | > 9950 |
| YXEGTXTSDXXIXLDXKAQXEXIXXLIEGGPSSGAPPPSK (Y-Aib-EGT-αMeF(2F)-TSD-4Pal-Aib-I-αMeL-LD-Orn-K((2-[2-(2-Amino-ethoxy)-ethoxy]-acetyl)3-(Y-Glu)-CO-(CH2)10-CH3)AQ-Aib-E-αMeF-I-(D-Glu)-αMeY-LIEGGPSSGAPPPSK((2-[2-(2-Amino-ethoxy)-ethoxy]-acetyl)3-(γ-Glu)-CO-(CH2)10-CH3)-NH2) [Example 439] |  |  | 0.11 | 95.7 | 0.00799 |  | > 9950 | 0.396 | 91.7 | 9.25 | 97 | > 9950 |
